According to the supplement of paper PMC12855868:

B1: library; numbered along this chain (parent)
chain: MAAAGGARLLRAASAVLGGPAGRWLHHAGSRAGSSGLLRNRGPGGSAEASRSLSVSARARSSSEDKITVHFINRDGETLTTKGKVGDSLLDVVVENNLDIDGFGACEGTLACSTCHLIFEDHIYEKLDAITDEENDMLDLAYGLTDRSRLGCQICLTKSMDNMTVRVPETVADARQSIDVGKTS

Variants of: B1
Test: scaled log2 fold change in cell abundance, elesclomol vs control (0 = silent mean, 1 = nonsense mean) (scaled log2 ratio); higher = higher viability under elesclomol (loss of FDX1 cuproptosis function)
Conditions: glucose 10 mM
[1] = with ABC1 FDX1 KO, elesclomol 5 nM, 14 days
[2] = with HEK293T FDX1 KO, elesclomol 40 nM, 11 days
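Note: variant abundance is its share of total variant reads in each endpoint sample, from next-generation sequencing of the integrated ORF PCR-amplified out of genomic DNA.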

Variant: A105K
- scaled log2 fold change [1]: 0.238
- scaled log2 fold change [2]: 0.106

Variant: A105W
- scaled log2 fold change [1]: -0.156
- scaled log2 fold change [2]: 0.135

Variant: A105P
- scaled log2 fold change [1]: 0.895
- scaled log2 fold change [2]: 0.503

Variant: A105E
- scaled log2 fold change [1]: 0.163
- scaled log2 fold change [2]: -0.502

Variant: A105H
- scaled log2 fold change [1]: -1.17
- scaled log2 fold change [2]: -0.265

Variant: A105N
- scaled log2 fold change [1]: -0.246
- scaled log2 fold change [2]: 0.204

Variant: A105G
- scaled log2 fold change [1]: -0.0984
- scaled log2 fold change [2]: -0.152

Variant: A105I
- scaled log2 fold change [1]: -0.149
- scaled log2 fold change [2]: -0.181

Variant: A105D
- scaled log2 fold change [1]: 0.0439
- scaled log2 fold change [2]: 0.0751

Variant: A105T
- scaled log2 fold change [1]: -1.22

Variant: A105S
- scaled log2 fold change [1]: -0.302
- scaled log2 fold change [2]: 0.253

Variant: A105R
- scaled log2 fold change [1]: 0.523
- scaled log2 fold change [2]: -0.155

Variant: A105Q
- scaled log2 fold change [1]: -0.126
- scaled log2 fold change [2]: 0.295

Variant: A105M
- scaled log2 fold change [1]: -0.336
- scaled log2 fold change [2]: 0.677

Variant: A105Y
- scaled log2 fold change [1]: -0.576
- scaled log2 fold change [2]: 0.955

Variant: A105C
- scaled log2 fold change [1]: 0.134
- scaled log2 fold change [2]: -0.333

Variant: A105F
- scaled log2 fold change [1]: 0.0682
- scaled log2 fold change [2]: 0.146

Variant: A105L
- scaled log2 fold change [1]: -0.395
- scaled log2 fold change [2]: 0.791

Variant: A105V
- scaled log2 fold change [1]: -0.318

Variant: I100Y
- scaled log2 fold change [1]: 0.0992
- scaled log2 fold change [2]: -0.139

Variant: I100V
- scaled log2 fold change [1]: -0.852
- scaled log2 fold change [2]: 0.0203

Variant: I100R
- scaled log2 fold change [1]: 0.287
- scaled log2 fold change [2]: 0.0979

Variant: I100T
- scaled log2 fold change [1]: 0.138
- scaled log2 fold change [2]: -0.631

Variant: I100W
- scaled log2 fold change [1]: 0.297
- scaled log2 fold change [2]: -0.693

Variant: I100S
- scaled log2 fold change [1]: 0.183
- scaled log2 fold change [2]: 1.01

Variant: I100Q
- scaled log2 fold change [1]: 0.155
- scaled log2 fold change [2]: 0.874

Variant: A111S
- scaled log2 fold change [1]: 0.397
- scaled log2 fold change [2]: -0.445

Variant: A111K
- scaled log2 fold change [1]: -0.155
- scaled log2 fold change [2]: 0.541

Variant: A111G
- scaled log2 fold change [1]: -0.0345
- scaled log2 fold change [2]: 0.231

Variant: A111L
- scaled log2 fold change [1]: 0.263
- scaled log2 fold change [2]: 0.862

Variant: A111H
- scaled log2 fold change [1]: -0.198

Variant: A111F
- scaled log2 fold change [1]: -1.42
- scaled log2 fold change [2]: 0.414

Variant: A111T
- scaled log2 fold change [1]: 0.105
- scaled log2 fold change [2]: -0.0821

Variant: A111R
- scaled log2 fold change [1]: -0.24

Variant: A111N
- scaled log2 fold change [1]: -0.0992
- scaled log2 fold change [2]: 0.0245

Variant: A111P
- scaled log2 fold change [1]: 1.2
- scaled log2 fold change [2]: 1.01

Variant: A111D
- scaled log2 fold change [1]: -0.231
- scaled log2 fold change [2]: 0.497

Variant: A111Y
- scaled log2 fold change [1]: -1.01
- scaled log2 fold change [2]: 0.214

Variant: A111E
- scaled log2 fold change [1]: -0.193
- scaled log2 fold change [2]: 1.05

Variant: A111I
- scaled log2 fold change [1]: -0.421
- scaled log2 fold change [2]: -0.0909

Variant: A111C
- scaled log2 fold change [1]: -0.264
- scaled log2 fold change [2]: 2.92

Variant: A111W
- scaled log2 fold change [1]: 0.0852
- scaled log2 fold change [2]: 0.773

Variant: A111Q
- scaled log2 fold change [1]: -0.0306
- scaled log2 fold change [2]: -0.173

Variant: A111M
- scaled log2 fold change [1]: -0.315
- scaled log2 fold change [2]: 1.22

Variant: A111V
- scaled log2 fold change [1]: -0.00247
- scaled log2 fold change [2]: -0.469

Variant: F103I
- scaled log2 fold change [1]: 0.186
- scaled log2 fold change [2]: 0.171

Variant: F103T
- scaled log2 fold change [1]: 1.16
- scaled log2 fold change [2]: 0.355

Variant: F103L
- scaled log2 fold change [1]: 0.27
- scaled log2 fold change [2]: 0.542

Variant: F103E
- scaled log2 fold change [1]: 0.983
- scaled log2 fold change [2]: 0.679

Variant: F103Y
- scaled log2 fold change [1]: 0.192
- scaled log2 fold change [2]: -0.0547

Variant: F103K
- scaled log2 fold change [1]: 1.2
- scaled log2 fold change [2]: 1.14

Variant: F103P
- scaled log2 fold change [1]: 1.14
- scaled log2 fold change [2]: 1.17

Variant: F103N
- scaled log2 fold change [1]: 1.06
- scaled log2 fold change [2]: 1.03

Variant: F103C
- scaled log2 fold change [1]: 0.693
- scaled log2 fold change [2]: 0.536

Variant: F103A
- scaled log2 fold change [1]: 0.92
- scaled log2 fold change [2]: 0.527

Variant: F103G
- scaled log2 fold change [1]: 1.04
- scaled log2 fold change [2]: 2.28

Variant: F103R
- scaled log2 fold change [1]: 1.09
- scaled log2 fold change [2]: 1.06

Variant: F103Q
- scaled log2 fold change [1]: 0.935
- scaled log2 fold change [2]: 1.02

Variant: F103M
- scaled log2 fold change [1]: 0.347
- scaled log2 fold change [2]: 0.516

Variant: F103H
- scaled log2 fold change [1]: 0.673
- scaled log2 fold change [2]: 1.17

Variant: F103W
- scaled log2 fold change [1]: 0.392
- scaled log2 fold change [2]: -1.07

Variant: F103V
- scaled log2 fold change [1]: 0.282
- scaled log2 fold change [2]: -0.441

Variant: F103D
- scaled log2 fold change [1]: 1.07
- scaled log2 fold change [2]: 0.779

Variant: F103S
- scaled log2 fold change [1]: 0.912
- scaled log2 fold change [2]: 0.923

Variant: G108R
- scaled log2 fold change [1]: 0.794
- scaled log2 fold change [2]: -0.104

Variant: G108L
- scaled log2 fold change [1]: 1.02
- scaled log2 fold change [2]: 1.11

Variant: G108Q
- scaled log2 fold change [1]: 0.767
- scaled log2 fold change [2]: 0.807

Variant: G108Y
- scaled log2 fold change [1]: 1
- scaled log2 fold change [2]: 1.1

Variant: G108P
- scaled log2 fold change [1]: 1.09
- scaled log2 fold change [2]: 1.24

Variant: G108I
- scaled log2 fold change [1]: 1.05
- scaled log2 fold change [2]: 1.37

Variant: G108D
- scaled log2 fold change [1]: 0.898
- scaled log2 fold change [2]: 0.446

Variant: G108E
- scaled log2 fold change [1]: 1.01
- scaled log2 fold change [2]: 0.92

Variant: G108V
- scaled log2 fold change [1]: 1.07
- scaled log2 fold change [2]: 1.34

Variant: G108K
- scaled log2 fold change [1]: 0.467
- scaled log2 fold change [2]: 0.101

Variant: G108T
- scaled log2 fold change [1]: 1.01
- scaled log2 fold change [2]: 0.358

Variant: G108M
- scaled log2 fold change [1]: 0.834
- scaled log2 fold change [2]: 0.77

Variant: G108W
- scaled log2 fold change [1]: 0.949
- scaled log2 fold change [2]: 0.989

Variant: G108H
- scaled log2 fold change [1]: 0.742
- scaled log2 fold change [2]: 0.224

Variant: G108C
- scaled log2 fold change [1]: 1.05
- scaled log2 fold change [2]: 0.472

Variant: G108N
- scaled log2 fold change [1]: 0.805
- scaled log2 fold change [2]: 0.721

Variant: G108S
- scaled log2 fold change [1]: 0.376
- scaled log2 fold change [2]: 0.952

Variant: G108A
- scaled log2 fold change [1]: 0.21
- scaled log2 fold change [2]: 1.08

Variant: G108F
- scaled log2 fold change [1]: 1.12
- scaled log2 fold change [2]: 0.938

Variant: C106A
- scaled log2 fold change [1]: 1.03
- scaled log2 fold change [2]: 1.51

Variant: C106G
- scaled log2 fold change [1]: 1.07
- scaled log2 fold change [2]: 1.6

Variant: C106P
- scaled log2 fold change [1]: 1.07
- scaled log2 fold change [2]: 0.899

Variant: C106M
- scaled log2 fold change [1]: 1.1
- scaled log2 fold change [2]: 1.09

Variant: C106W
- scaled log2 fold change [1]: 1.05
- scaled log2 fold change [2]: 1.27

Variant: C106T
- scaled log2 fold change [1]: 1.19
- scaled log2 fold change [2]: 1.27

Variant: C106D
- scaled log2 fold change [1]: 1.03
- scaled log2 fold change [2]: 1.3

Variant: C106V
- scaled log2 fold change [1]: 1.17
- scaled log2 fold change [2]: 1.11

Variant: C106H
- scaled log2 fold change [1]: 1.11
- scaled log2 fold change [2]: 1

Variant: C106R
- scaled log2 fold change [1]: 1.07
- scaled log2 fold change [2]: 1.14

Variant: C106Q
- scaled log2 fold change [1]: 0.973
- scaled log2 fold change [2]: 1.99

Variant: C106F
- scaled log2 fold change [1]: 1.03
- scaled log2 fold change [2]: 1.44

Variant: C106Y
- scaled log2 fold change [1]: 1.17
- scaled log2 fold change [2]: 1.2

Variant: C106S
- scaled log2 fold change [1]: 1.19
- scaled log2 fold change [2]: 1.14

Variant: C106N
- scaled log2 fold change [1]: 1.18
- scaled log2 fold change [2]: 0.906

Variant: C106K
- scaled log2 fold change [1]: 1.09
- scaled log2 fold change [2]: 1.38

Variant: C106I
- scaled log2 fold change [1]: 1.16
- scaled log2 fold change [2]: 1.5

Variant: C106E
- scaled log2 fold change [1]: 1.06
- scaled log2 fold change [2]: 1.3

Variant: C106L
- scaled log2 fold change [1]: 1.09
- scaled log2 fold change [2]: 1.32

Variant: G102S
- scaled log2 fold change [1]: 0.293
- scaled log2 fold change [2]: 0.861

Variant: G102R
- scaled log2 fold change [1]: 0.164
- scaled log2 fold change [2]: -1.7

Variant: G102L
- scaled log2 fold change [1]: 0.0952
- scaled log2 fold change [2]: -0.752

Variant: G102M
- scaled log2 fold change [1]: -0.196
- scaled log2 fold change [2]: -0.665

Variant: G102Q
- scaled log2 fold change [1]: -0.0113
- scaled log2 fold change [2]: 0.76

Variant: G102F
- scaled log2 fold change [1]: -0.00949
- scaled log2 fold change [2]: -0.289

Variant: G102K
- scaled log2 fold change [1]: 0.473
- scaled log2 fold change [2]: -0.277

Variant: G102H
- scaled log2 fold change [1]: 0.0379
- scaled log2 fold change [2]: 0.869

Variant: G102C
- scaled log2 fold change [1]: 0.0125
- scaled log2 fold change [2]: 0.0278

Variant: G102E
- scaled log2 fold change [1]: 0.427
- scaled log2 fold change [2]: -0.163

Variant: G102N
- scaled log2 fold change [1]: -0.336
- scaled log2 fold change [2]: 0.807

Variant: G102V
- scaled log2 fold change [1]: 0.298
- scaled log2 fold change [2]: -0.174

Variant: G102D
- scaled log2 fold change [1]: -0.0623
- scaled log2 fold change [2]: -0.526

Variant: G102I
- scaled log2 fold change [1]: 0.0866
- scaled log2 fold change [2]: 0.0202

Variant: G102Y
- scaled log2 fold change [1]: 0.333
- scaled log2 fold change [2]: -0.0235
